# PMC3145977, “Thermostabilisation of an Agonist-Bound Conformation of the Human Adenosine A2A Receptor” (Journal of Molecular Biology, 2011)
# Numbering of substitutions follows the chain as printed. In names and notes the source's numbering stands.
# B1: GL10: A2AR mutant L48A-Q89A (protein, UniProt P29274 1-412, looked up, variant L48A Q89A)
# Adenosine receptor A2a: MPIMGSSVYITVELAIAVLAILGNVLVCWAVWLNSNLQNVTNYFVVSAAAADIAVGVLAIPFAITISTGFCAACHGCLFIACFVLVLTASSIFSLLAIAIDRYIAIRIPLRYNGLVTGTRAKGIIAICWVLSFAIGLTPMLGWNNCGQPKEGKNHSQGCGEGQVACLFEDVVPMNYMVYFNFFACVLVPLLLMLGVYLRIFLAARRQLKQMESQPLPGERARSTLQKEVHAAKSLAIIVGLFALCWLPLHIINCFTFFCPDCSHAPLWLMYLAIVLSHTNSVVNPFIYAYRIREFRQTFRKIIRSHVLRQQEPFKAAGTSARVLAAHGSDGEQVSLRLNGHPPGVWANGSAPHPERRPNGYALGLVSGGSAQESQGNTGLPDVELLSHELKGVCPEPPGLDDPLAQDGAGVS
# B2: GL5: A2AR mutant L48A-V57A (protein, UniProt P29274 1-412, looked up, variant L48A V57A)
# Adenosine receptor A2a: B1 Adenosine receptor A2a with V57A, A89Q
# B3: GL20: A2AR mutant L48A-Q89A-V12A (protein, UniProt P29274 1-412, looked up, variant L48A Q89A V12A)
# Adenosine receptor A2a: B1 Adenosine receptor A2a with V12A
# B4: GL19: A2AR mutant L48A-V282A (protein, UniProt P29274 1-412, looked up, variant L48A V282A)
# Adenosine receptor A2a: B1 Adenosine receptor A2a with A89Q, V282A
# B5: GL27: A2AR mutant L48A-Q89A-T65A-F83A (protein, UniProt P29274 1-412, looked up, variant L48A Q89A T65A F83A)
# Adenosine receptor A2a: B1 Adenosine receptor A2a with T65A, F83A
# B6: GL25: A2AR mutant L48A-Q89A-T65A-A50L (protein, UniProt P29274 1-412, looked up, variant L48A Q89A T65A A50L)
# Adenosine receptor A2a: B1 Adenosine receptor A2a with A50L, T65A
# B7: GL29: A2AR mutant L48A-Q89A-T65A- S263A (protein, UniProt P29274 1-412, looked up, variant L48A Q89A T65A S263A)
# Adenosine receptor A2a: B1 Adenosine receptor A2a with T65A, S263A
# B8: A54L: A2AR point mutant A54L (protein, UniProt P29274 1-412, looked up, variant A54L)
# Adenosine receptor A2a: B1 Adenosine receptor A2a with A48L, A54L, A89Q
# B9: GL4: A2AR mutant L48A-A54L (protein, UniProt P29274 1-412, looked up, variant L48A A54L)
# Adenosine receptor A2a: B1 Adenosine receptor A2a with A54L, A89Q
# B10: GL26: A2AR mutant L48A-Q89A-T65A-A54L (protein, UniProt P29274 1-412, looked up, variant L48A Q89A T65A A54L)
# Adenosine receptor A2a: B1 Adenosine receptor A2a with A54L, T65A
# B11: S90A: A2AR point mutant S90A (protein, UniProt P29274 1-412, looked up, variant S90A)
# Adenosine receptor A2a: B1 Adenosine receptor A2a with A48L, A89Q, S90A
# B12: GL24: A2AR mutant L48A-Q89A-F79A (protein, UniProt P29274 1-412, looked up, variant L48A Q89A F79A)
# Adenosine receptor A2a: B1 Adenosine receptor A2a with F79A
# B13: F242A: A2AR point mutant F242A (protein, UniProt P29274 1-412, looked up, variant F242A)
# Adenosine receptor A2a: B1 Adenosine receptor A2a with A48L, A89Q, F242A
# B14: GL14: A2AR mutant L48A-A236L (protein, UniProt P29274 1-412, looked up, variant L48A A236L)
# Adenosine receptor A2a: B1 Adenosine receptor A2a with A89Q, A236L
# B15: F83A: A2AR point mutant F83A (protein, UniProt P29274 1-412, looked up, variant F83A)
# Adenosine receptor A2a: B1 Adenosine receptor A2a with A48L, F83A, A89Q
# B16: I238A: A2AR point mutant I238A (protein, UniProt P29274 1-412, looked up, variant I238A)
# Adenosine receptor A2a: B1 Adenosine receptor A2a with A48L, A89Q, I238A
# B17: GL8: A2AR mutant L48A-F79A (protein, UniProt P29274 1-412, looked up, variant L48A F79A)
# Adenosine receptor A2a: B1 Adenosine receptor A2a with F79A, A89Q
# B18: GL11: A2AR mutant L48A-S90A (protein, UniProt P29274 1-412, looked up, variant L48A S90A)
# Adenosine receptor A2a: B1 Adenosine receptor A2a with A89Q, S90A
# B19: GL6: A2AR mutant L48A-F62A (protein, UniProt P29274 1-412, looked up, variant L48A F62A)
# Adenosine receptor A2a: B1 Adenosine receptor A2a with F62A, A89Q
# B20: GL21: A2AR mutant L48A-Q89A-A54L (protein, UniProt P29274 1-412, looked up, variant L48A Q89A A54L)
# Adenosine receptor A2a: B1 Adenosine receptor A2a with A54L
# B21: GL15: A2AR mutant L48A-I238A (protein, UniProt P29274 1-412, looked up, variant L48A I238A)
# Adenosine receptor A2a: B1 Adenosine receptor A2a with A89Q, I238A
# B22: GL17: A2AR mutant L48A-F242A (protein, UniProt P29274 1-412, looked up, variant L48A F242A)
# Adenosine receptor A2a: B1 Adenosine receptor A2a with A89Q, F242A
# B23: A236L: A2AR point mutant A236L (protein, UniProt P29274 1-412, looked up, variant A236L)
# Adenosine receptor A2a: B1 Adenosine receptor A2a with A48L, A89Q, A236L
# B24: T65A: A2AR point mutant T65A (protein, UniProt P29274 1-412, looked up, variant T65A)
# Adenosine receptor A2a: B1 Adenosine receptor A2a with A48L, T65A, A89Q
# B25: GL9: A2AR mutant L48A-F83A (protein, UniProt P29274 1-412, looked up, variant L48A F83A)
# Adenosine receptor A2a: B1 Adenosine receptor A2a with F83A, A89Q
# B26: F62A: A2AR point mutant F62A (protein, UniProt P29274 1-412, looked up, variant F62A)
# Adenosine receptor A2a: B1 Adenosine receptor A2a with A48L, F62A, A89Q
# B27: Q89A: A2AR point mutant Q89A (protein, UniProt P29274 1-412, looked up, variant Q89A)
# Adenosine receptor A2a: B1 Adenosine receptor A2a with A48L
# B28: GL1: A2AR mutant L48A-V12A (protein, UniProt P29274 1-412, looked up, variant L48A V12A)
# Adenosine receptor A2a: B1 Adenosine receptor A2a with V12A, A89Q
# B29: GL7: A2AR mutant L48A-T65A (protein, UniProt P29274 1-412, looked up, variant L48A T65A)
# Adenosine receptor A2a: B1 Adenosine receptor A2a with T65A, A89Q
# B30: GL22: A2AR mutant L48A-Q89A-F62A (protein, UniProt P29274 1-412, looked up, variant L48A Q89A F62A)
# Adenosine receptor A2a: B1 Adenosine receptor A2a with F62A
# B31: V57A: A2AR point mutant V57A (protein, UniProt P29274 1-412, looked up, variant V57A)
# Adenosine receptor A2a: B1 Adenosine receptor A2a with A48L, V57A, A89Q
# B32: F79A: A2AR point mutant F79A (protein, UniProt P29274 1-412, looked up, variant F79A)
# Adenosine receptor A2a: B1 Adenosine receptor A2a with A48L, F79A, A89Q
# What was measured:
# [1] = system: [^3H]NECA-bound A2AR; assay: Thermostability assay of detergent-solubilised receptor with [3H]NECA bound (ligand plus format); format: physicochemical, human
# Method: […]. After solubilisation in DDM, A2AR was bound to Ni^2+-NTA resin, washed to reduce the DDM concentration and then eluted (see Methods). […]. An aliquot of E. coli cells (14 mL) was thawed on ice and resupended in 500 μL of buffer A [50 mM Tris–HCl (pH 7.4), 0.4 M NaCl, 250 μg/mL lysozyme (Sigma) and 1 mg/mL DNase I (Sigma), supplemented with complete ethylenediaminetetraacetic acid (EDTA)-free Protease inhibitor cocktail (Roche)] and incubated for 1 h at 4 °C. Samples were then sonicated for 1 min at 4 °C using a cup-horn sonicator. The receptors were solubilised by adding 1% DDM and incubated for 1 h at 4 °C. Insoluble material was removed by centrifugation (5 min, 13,000g, 4 °C). The solubilised receptors were partially purified with Ni-NTA agarose (Qiagen). Agarose beads (300 μL) pre-equilibrated in buffer A were added to 700 μL of solubilised receptor. […].
# (§1) The sample was incubated for 45 min at 4 °C, then 30 min at the specified temperature and then 30 min at 4 °C. Receptor-bound and free radioligands were separated as previously described on mini gel-filtration columns.[26] Receptor-bound ligands were transferred to a 96-well plate (PerkinElmer) and mixed with 200 μL of Optiphase supermix (PerkinElmer). The bound ^3H-labeled ligand was determined using a 1450 Microbeta Trilux counter (1 min per sample).
# For all the thermostabilisation studies carried out in our laboratory, the apparent Tm is the temperature for which 50% of the solubilised receptor remains folded after 30 min of incubation. The rate constant of the protein denaturation is a function of the temperature, and consequently, thermal denaturation of a protein can be compared to a chemical reaction for which the rate of the reaction is dependant on the temperature. Arrhenius established that any chemical reaction is temperature dependant. […]. The reference measurement representing the total binding activity of the sample A0 was considered to be measured at 4 °C. From the graphical representation t = Log10(t1/2) (Fig. 2c), we could extract a half-life for each construct at any temperature to define the improvement in stability of the various mutants compared to WT A2AR.
# [2] = system: [^3H]ZM241385-bound A2AR; assay: Thermostability assay of detergent-solubilised receptor with [3H]ZM241385 bound; format: physicochemical, human; settings: for Binding of [^3H]ZM241385: at 4 °C, 100 nM radioligand
# Method: An aliquot of E. coli cells (14 mL) was thawed on ice and resupended in 500 μL of buffer A [50 mM Tris–HCl (pH 7.4), 0.4 M NaCl, 250 μg/mL lysozyme (Sigma) and 1 mg/mL DNase I (Sigma), supplemented with complete ethylenediaminetetraacetic acid (EDTA)-free Protease inhibitor cocktail (Roche)] and incubated for 1 h at 4 °C. Samples were then sonicated for 1 min at 4 °C using a cup-horn sonicator. The receptors were solubilised by adding 1% DDM and incubated for 1 h at 4 °C. Insoluble material was removed by centrifugation (5 min, 13,000g, 4 °C). The solubilised receptors were partially purified with Ni-NTA agarose (Qiagen). Agarose beads (300 μL) pre-equilibrated in buffer A were added to 700 μL of solubilised receptor. […].
# as §1
molecule,measurement,setting,value
B1,"Apparent Tm in DDM, Single measurement",[1],47.5 °C
same,Improvement in stability compared to WT based on t1/2 (decrease in rate of unfolding),"[1]; [3H]NECA bound, DDM, from Fig. 2c",136 fold
B2,"Apparent Tm in DDM, Single measurement",[1],41.5 °C
B3,"Apparent Tm in DDM, Single measurement",[1],46 °C
B4,"Apparent Tm in DDM, Single measurement",[1],40 °C
B5,"Apparent Tm in DM, Single measurement",[1],44 °C
B6,"Apparent Tm in DM, Single measurement",[1],44.5 °C
B7,"Apparent Tm in DM, Single measurement",[1],44.5 °C
B8,"Apparent Tm, Antagonist [^3H]ZM241385",[2],38 °C
same,"ΔTm, Antagonist [^3H]ZM241385",[2],+ 6 °C
B9,"Apparent Tm in DDM, Single measurement",[1],46 °C
B10,"Apparent Tm in DM, Single measurement",[1],46 °C
same,Increase in stability versus WT receptor in DM,[1]; DM,21.5 °C
B11,"Apparent Tm, Antagonist [^3H]ZM241385",[2],32 °C
same,"ΔTm, Antagonist [^3H]ZM241385",[2],0 °C
B12,"Apparent Tm in DDM, Single measurement",[1],46 °C
B13,Binding of [^3H]ZM241385,[2],did not bind
B14,"Apparent Tm in DDM, Single measurement",[1],40.5 °C
B15,"Apparent Tm, Antagonist [^3H]ZM241385",[2],16.5 °C
same,"ΔTm, Antagonist [^3H]ZM241385",[2],− 15.5 °C
B16,"Apparent Tm, Antagonist [^3H]ZM241385",[2],36 °C
same,"ΔTm, Antagonist [^3H]ZM241385",[2],+ 4 °C
B17,"Apparent Tm in DDM, Single measurement",[1],45.5 °C
B18,"Apparent Tm in DDM, Single measurement",[1],46 °C
B19,"Apparent Tm in DDM, Single measurement",[1],45 °C
B20,"Apparent Tm in DDM, Single measurement",[1],46 °C
B21,"Apparent Tm in DDM, Single measurement",[1],42.5 °C
B22,"Apparent Tm in DDM, Single measurement",[1],39.5 °C
B23,"Apparent Tm, Antagonist [^3H]ZM241385",[2],38 °C
same,"ΔTm, Antagonist [^3H]ZM241385",[2],+ 6 °C
B24,"Apparent Tm, Antagonist [^3H]ZM241385",[2],38 °C
same,"ΔTm, Antagonist [^3H]ZM241385",[2],+ 6 °C
B25,"Apparent Tm in DDM, Single measurement",[1],43.5 °C
B26,Binding of [^3H]ZM241385,[2],did not bind
B27,"Apparent Tm, Antagonist [^3H]ZM241385",[2],26 °C
same,"ΔTm, Antagonist [^3H]ZM241385",[2],− 8 °C
B28,"Apparent Tm in DDM, Single measurement",[1],45.5 °C
B29,"Apparent Tm in DDM, Single measurement",[1],45 °C
B30,"Apparent Tm in DDM, Single measurement",[1],45.5 °C
B31,"Apparent Tm, Antagonist [^3H]ZM241385",[2],38 °C
same,"ΔTm, Antagonist [^3H]ZM241385",[2],+ 6 °C
B32,Binding of [^3H]ZM241385,[2],did not bind
